The source of these data is article PMC5499675 (2017).

Test [1] has as its target T1, IGRP peptide on HLA-DRA*01:01 / HLA-DRB1*04:01 (human).
T1 peptide: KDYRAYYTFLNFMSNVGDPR
Briefly: multimer staining.

The target of test [2] is IGRP peptide on HLA-DRA*01:01 / HLA-DRB1*04:01 (human). Put plainly: multimer staining. The source holds these as a separate data set.
Test [3] has as its target T2, IGRP peptide on HLA-DRA*01:01 / HLA-DRB1*04:01 (human). Put plainly: multimer staining. This is another data set of the same source.
For test [4], the target named is T3, influenza hemagglutinin peptide on HLA-DRA*01:01 / HLA-DRB1*04:01 (human).
T3 peptide: PRYVKQNTLKLAT
Put plainly: multimer staining.

Test [5] deals with T1, IGRP peptide on HLA-DRA*01:01 / …. Put plainly: proliferation.
In test [6] the target is T2, IGRP peptide on HLA-DRA*01:01 / …. Put plainly: proliferation. The source holds these as a separate data set.

B1: Expanded TCR clonotype from subject T1D2 (Sequences 1 and 2) (TCR)
alpha TRAV29 TRAJ40 CDR3: CAATRTSGTYKYIF
beta TRBV6-6 TRBJ2-3 CDR3: CASSPWGAGGTDTQYF
In the case of B1, the binding result in test [1] was “no recognition”; in test [2] it was “no recognition”; in test [3], “recognises”; in test [4], “no recognition”.

B2: Expanded TCR clonotype from subject T1D4 (Sequences 3 and 4) (TCR)
alpha TRAV2 TRAJ15 CDR3: CAVEDLNQAGTALIF
beta TRBV5-1 TRBJ2-1 CDR3: CASSLALGQGNQQFF
Take B2: the binding result is “no recognition” in test [5], “no recognition” in test [6], “recognises” in test [2] and “no recognition” in test [4].
